Laboratory results published in patent US6710030B1, “Contortrostain (CN) and methods for its use in preventing metastasis and other conditions” (University of Southern California, priority 1993, dated 2004).
“Also recorded” adds a separate entry of the source.

Columns and labels:
[1] = system: unactivated human platelets; assay: Scatchard analysis of CN binding to unactivated human platelets
T24-β3 neg. cells = assay: Adhesion of T24-β3 neg. cells to immobilized vitronectin; type: cell-based, human; conditions: FIG. 19 C, D
Experimental: Experiment 1. Cell adhesion assay: Human bladder carcinoma T24 cells were purchased from ATCC, and grown in RPMI1640 medium containing 5% fetal bovine serum. T24-β3 neg. cells were isolated by 6 rounds of negative FACS selection with anti-αvβ3 monoclonal antibody (mAb) LM609. FACS analysis was then performed as follows. The cells were resuspended in 1% BSA/PBS at a density of 1×10^7/ml. Aliquots of 100 μl were incubated with anti-αvβ3 mAb 7E3 or anti-αvβ5 mAb P1F6 (final concentration 5 μg/ml) at room temperature for 30 minutes. The cells were washed twice and resuspended in 1% BSA/PBS. Goat anti-mouse IgG conjugated with FITC was added to the suspension at a final titer of 1:200. After 30 minutes incubation at room temperature in darkness, unbound FITC-conjugated IgG was washed off, and the fluorescent intensity of the cells was analyzed using flow cytometry (FACScan, Becton Dickinson, Bedford, Mass.). Tests were performed in duplicate and the experiment was repeated three times. The results clearly indicate that T24 cells express both integrins αvβ3 (major) and αvβ5 (minor), but T24-β3 neg. cells only express αvβ5 (FIG. 18)
Individual wells of 96-well plates were coated at 4° C. overnight with 100 μl of vitronectin (1 μg/well). […] Cell adhesion was quantified either by CellTiter 96™ Aqueous Proliferation Assay kit (Promega, Madison, Wis.). […]

αvβ3 293 cells = assay: Phosphotyrosine immunoblot, 293 cells expressing αvβ3; type: cell-based, human; conditions: 10 min
Experimental: Cell culture, preparation and stimulation—T24 cells were maintained in RPMI 1640 medium containing 5% fetal bovine serum, and MDA-MB-435 and 293 cells were maintained in Dulbecco's modified Eagle's medium with 10% serum at 37° C. in 5% CO2. Cells were washed with phosphate-buffered saline (PBS) and starved in the appropriate serum-free medium for 6 h at 37° C. Cells were detached by brief treatment with 0.05% trypsin/0.02% EDTA in PBS and collected by centrifugation, resuspended in soybean trypsin inhibitor (1 mg/ml in serum-free medium), and washed in 2% bovine serum albumin/serum-free medium. Cells were maintained in suspension for 1 h in 2% bovine serum albumin/serum-free medium at 37° C. with end-over-end agitation. Quiescent cells (3×10^6/ml) were treated with disintegrins or other reagents while in suspension, or were allowed to adhere to Matrigel (Becton Dickinson, Bedford, Mass.) diluted 1:100 with serum-free medium during treatment. […]
Contortrostatin- induced signaling events are mediated by the αvβ3 integrin—The integrinbinding specificities of echistatin and flavoridin have been determined previously (Niewiarowski et al., supra; and Pfaff, M., McLane, M. A., Beviglia, L., Niewiarowski, S., and Timpl, R. (1994) Cell Adhesion and Communication 2, 491-501). […]

B1: contortrostatin (protein)
chain: DAPANPCCDAATCKLTTGSQCADGLCCDQCKFMKEGTVCRRARGDDLDDYCNGISAGCPRNPFHA
- number of binding sites (Bm) [1]: 100,000
- adhesion of T24-β3 neg. cells to vitronectin, in words (T24-β3 neg. cells): completely inhibited adhesion; also recorded: inhibits adhesion of T24-β3 neg. completely
- tyrosine phosphorylation (αvβ3 293 cells): robust induction of tyrosine phosphorylation; also recorded: increased tyrosine phosphorylation
